Paper PMC11938259, “Heme delivery into soluble guanylyl cyclase requires a heme redox change and is regulated by NO and Hsp90 by distinct mechanisms” (The Journal of Biological Chemistry, 2025)

Biological target: FlAsH-labeled TC-apo-sGCβ (rat sGCβ(1–385) with a TC motif) (rat, UniProt P20595 1-385, TC motif (CCPGCC) inserted at residue 239 to 244, FlAsH dye bound to the tetra-Cys (TC) motif; heme-free (apo))
Test: cell-based or functional assay

Sequence of FlAsH-labeled TC-apo-sGCβ (rat sGCβ(1–385) with a TC motif) (P20595 other isoform, or with tags, fused parts or gaps TC motif (CCPGCC) inserted at residue 239 to 244): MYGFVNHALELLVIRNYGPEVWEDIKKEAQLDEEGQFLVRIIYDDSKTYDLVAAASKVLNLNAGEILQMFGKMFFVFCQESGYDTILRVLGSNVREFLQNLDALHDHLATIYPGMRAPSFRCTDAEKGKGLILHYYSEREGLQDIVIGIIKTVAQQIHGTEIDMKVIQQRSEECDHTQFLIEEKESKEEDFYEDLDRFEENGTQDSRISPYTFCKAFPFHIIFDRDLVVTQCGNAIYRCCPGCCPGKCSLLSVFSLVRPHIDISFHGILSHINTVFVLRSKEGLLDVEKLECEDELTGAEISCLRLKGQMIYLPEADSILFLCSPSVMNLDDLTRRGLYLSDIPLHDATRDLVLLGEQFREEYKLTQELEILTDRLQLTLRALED

B1: glyceraldehyde 3-phosphate dehydrogenase (GAPDH), human (enzyme)
chain: not shown
heme transfer (FlAsH fluorescence kinetics) from the GAPDH–heme complex to a preformed complex of GAPDH bound on FlAsH-TC-apo-sGCβ, against FlAsH-TC-apo-sGCβ alone (Fig. S4): 5 fold slower
